One data set has as its target T1, yeast hexokinase (HK) (Saccharomyces cerevisiae, UniProt P04807).
T1 construct: gene HXK2; commercial preparation containing predominantly the PII isoform (HXK2); may contain some PI
T1 sequence (P04807 2-486): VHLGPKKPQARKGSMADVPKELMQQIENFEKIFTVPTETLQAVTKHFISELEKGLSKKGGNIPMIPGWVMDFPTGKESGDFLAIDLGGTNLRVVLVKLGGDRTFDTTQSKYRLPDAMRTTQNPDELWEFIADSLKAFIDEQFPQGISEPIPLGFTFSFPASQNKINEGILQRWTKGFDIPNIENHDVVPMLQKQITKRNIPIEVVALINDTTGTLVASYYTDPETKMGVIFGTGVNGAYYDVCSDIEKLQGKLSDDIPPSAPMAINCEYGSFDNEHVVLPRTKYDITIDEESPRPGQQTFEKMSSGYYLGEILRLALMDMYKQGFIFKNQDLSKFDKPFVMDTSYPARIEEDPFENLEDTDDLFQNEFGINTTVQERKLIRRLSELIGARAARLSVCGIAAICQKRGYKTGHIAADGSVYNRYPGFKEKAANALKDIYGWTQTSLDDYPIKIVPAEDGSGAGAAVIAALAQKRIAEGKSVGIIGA
The data set is described as follows: coupled G6PDH assay, NADH formation. The data set is classed as biochemical. The conditions noted are these: inhibition by product; 0.15-20 mM ADP, 30 °C, pH 7.5.

Substrate in data set [1]: Nc1ncnc2c1ncn2[C@@H]1O[C@H](COP(=O)(O)OP(=O)(O)OP(=O)(O)O)[C@@H](O)[C@H]1O
The data set is described as follows: coupled G6PDH assay, NADH formation. The data set is classed as biochemical, Saccharomyces cerevisiae. To be noted: 200 mM glucose, 10 mM MgCl2, 50 mM sodium phosphate pH 7.5, 30 °C. The source says:
coupled G6PDH assay, NADH formation on yeast hexokinase (HK)

Substrate in data set [2]: Nc1ncnc2c1ncn2[C@@H]1O[C@H](COP(=O)(O)OP(=O)(O)O)[C@@H](O)[C@H]1O
The data set is described as follows: luciferase ATP determination assay. The conditions noted are these: 0-20 mM ADP, 10 mM sodium polyphosphate (Graham's salt), 10 mM MgCl2, sodium phosphate pH 7.5, 30 °C. The data set is classed as biochemical, Pseudomonas aeruginosa.

As to `Nc1ncnc2c1ncn2[C@@H]1O[C@H](COP(=O)(O)OP(=O)(O)O)[C@@H](O)[C@H]1O` [ADP], at yeast hexokinase (HK), the relative activity entry is given as “ADP lowered the reaction even at small concentrations”.

B1: yeast hexokinase (HK) (Saccharomyces cerevisiae S288C) (protein)
chain: T1 sequence (P04807 2-486)
notes: commercial preparation containing predominantly the PII isoform (HXK2); may contain some PI
As a reminder, the Km is the substrate concentration at which the rate is half of its maximum. For orientation: Vmax means the top rate of the reaction or transport when substrate is in excess. Take B1: in data set [1], the Km came out at 1107 ± 74 µM and the Vmax came out at 33 µM/min.

B2: PPK2 (Pseudomonas aeruginosa PAO1) (protein)
chain: MDSYGDTSGRIGRDWLDRHDEELEQELLDDELNLDELFGPEQEDAPGELSRRRYFRELFRLQRELVKLQNWVVHTGHKVVILFEGRDAAGKGGVIKRITQRLNPRVCRVAALPAPNDREQTQWYFQRYVSHLPAGGEIVLFDRSWYNRAGVERVMGFCNDEQYEEFFRSVPEFEKMLARSGIQLLKYWFSISDAEQHLRFLSRIHDPLKQWKLSPMDLESRRRWEAYTKAKETMLERTHIPEAPWWVVQADDKKRARLNCIHHLLQQMPYREVPQPPVHLPERLRHADYVRHPTPGEIIVPEVY
notes: about 39 kDa; E. coli BL21 (DE3)
Take B2: the Km in data set [2] stood at 23 ± 5.9 µM.
